These results are taken from a protein production outcome set (Wang et al. 2014).
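Further: failed if final PepcDB status was selected cloned or expressed and not failed if soluble or beyond.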

The series in a line: label from the status in PepcDB records.
As for “MRCCHSGKSYRLWGHRSSQRHRSGETGRGRLRIDQPGAASRRGSRALSWCGCHHVPCPDVTGAGRVRATCRRSFVHERNPHLHMLDAFHRGDVGLYTGTMTAPALLSREAELSRRDLIALESRLREAVSRFLPFKAYSLYFPREAETVEPLWLPGEGRLLLPLIHGGALLAVFVARGVPRRIVRSLMPAFPGLLALCMENLALYKAGRTDALTGLSTRQHLVERMAREADHVRTCFANPPEGEGDLGAPLHRACMGLVVVRLASLRQVARDHGYTFADRLTTELARELSALAPEQALAARTGDYEFALLVPAAASGVCRKLAEEAVQRLSAVSLRCGLTEKAVRVCVSAGYAVYPRDMEGALFERDMAEQARVLLRKARLAAAVAGEGEGSEGPGVMGFARILAEGGAVVETHPLSRVMVNLGRSMNAREGQRFSVWSVAYPVRGGTHEPRQPLYKGEVVLLEVREDRSVAEILHLGDPTWPIEPGDRLTLLPEEKGGDARRDASGVQVDPLTGLYRHGDFLARWSEAREGCDCFALALVRFSDDGRDPEGRASHPEQLMAEAAQLCRDHFGAETLGGRYGLNSIVFFHPDMTCDAARESYRQLCDLLSKRLRIDAAVGVGCHPFLAYRRADALENALKALEYALLLPEPRVGIFDSLALNISADKRFSLGDTFGAIEEYKTALLADEGNTMAWNSLGVCMAGLGRHGEARRYFEQALQRKPGDPMALYNLGTVCQSLGETAEARKQYRKCLKYAPGHVFALVRLGQLAEGEKRYAQARQYFNKAARAGDSGGLVHRNLARLSMRQGRPDEAREHLHDALLRNPQDAVALQLMARLYLDGGEDPAMAEALSRQSVALRPDLKQGWLELARALDARGHVAEAREARLRAGER”, the protein production entry is given as “failed”. “MSLDPAHTPDPAHPHDQEAAHAEDPARAIGSARLLDVDPLLDDPGTRIVVCCGSGGVGKTTTAAALGLRAAERGRKVVVLTIDPARRLAQSMGIDSLDNIPRRVKGIDDSASGELHAMMLDMKRTFDEIVEAHADRERAAAILSNPFYQSLSAGFAGTQEYMAMEKLGQLRARDEWDLIIVDTPPSRSALDFLDAPKRLGSFLDGKLIRLLTAPAKLGGRAGMKFLNVGMSMMTGTLGKLLGGQLLKDVQTFVAAMDTTFGGFRTRADATYKLLQAPGTAFLVVAAPERDALREAAYFVERLAAEDMPLAGLVLNRVHGSGAAQLSAERALAAAENLDLAADPGSTENLEESRIVDQEGGKAGLRNSPDTYGSSESPADLTPADQTPASSEGSPATDGAVEQLTAGLLILHAERMQLLSREQRTRDRFAALHPEVAVAEVAALPGDVHDLTGLRDIGDRLAANRPELPTSPGGALEHHHHHH”: the protein production entry is “not failed”. As for “MCTPAADTRRGSPALASTARRGLLPARRNGPSARRGEALRSSTGRFVCWCRRRTASVDPSGFMPASFSIAGRLVDLHARAIRPATVHVQDGVIARIEPAETVPERHLLPGFIDAHVHVESAMLPPSEFARAAVRHGTVGTVSDPHEIANVLGVEGVEYMIADGRPVPFHFAFGAPSCVPATPFETSGAELGPDAVSALLDRDDVPYLSEMMDYPGAIDGAPNVLAKIRAAQVRDKPVDGHAPGLRGDDVAQYAAAGIETDHECVSIEEAREKLEAGMKIAIREGSAAKNFDELIPLMDEAPDRLMFCSDDRHPDALAEGHIDTLVRRALNRGYDRFDVLRAACVHPVEHYGLDVGLLREGDPADFIVVDDLDALNVQETYVEGALVAEEGETHIEHVASDVVNRFDAEPVAPADFRVPAGGDRLRVITAVDNQLGTGEEVVTTPTDDGYAVADPDRDVLKLAVVNRYTEESTPAVAFVRGFGLDGGALASSVAHDSHNVVAVGARDDALARAVNAVVRAEGGISAAAEGTQVLPLPIAGLMSDEPYDVVARRYTRLTDYVRAELGSAMDAPFMTLSFLSLLVIPQLKLSDRGLFDGAAFEFVDRFVD”, the protein production entry was “failed”. On to “MFVFMLLLLLPFTISKAKDFPANPIEKAGYKLDFSDEFNGPTLDREKWTDYYLPHWCKDPESAKANYRFENGSLVEYITEDQKPWCPEHDGTVRSSAIMSFDKSWIHNFSGTTDNHERNEWRGYTTKYGYFEIRAKLSNTGGGGHQAWWMVGMQDDTNDWFNSKQTGEIDILETFFSKKDTWRIAAYGWNDPNFQTSWTISEDKVPSGDPTSEYHIYAMEWTPTALKFYYDNELFKVIYGSPDYEMGTILNIYTDAGSGAHNDVWPKEWAIDYMRVWKPVDGYKESESLNNYLIRNRQTGKFLYIEENNDKVSYGDITLKNEKNAKWSKEYRDGYTLLKNNETGEYLNIENQTGYIEHGKVPKTWWSAQWSEVPVDGYTRFVNRWKPNMSIHTESYEGVLQYGNVPNTYWTSQWQLIPVE”, for which the protein production result is recorded as “not failed”.

With “MAVTLQQTLIDIDEEQLVFHLHNDQISYILGVETGNVLAHLYFGPRVRGYHGERQYPRIDRGFSGNLPNTTDRSYSKDDLPQEYGGNNTGDYRQPAAIIRAANGARTVDFRYQDCRMEAGKPELKGLPQTYVEDEDEAQTLIVTLRDATLGVTLELAYTIYRDRPVITRSARLINHSEQAVDLEKVASMQMDLPTQPLDAISLPGSYARERQLSRERLHRGVTQFESRRGASSHHMNPFVALADPNTNEFQGNVLGALLIYSGNHQISLERDPIGQTRLTMGINEYNFDWRLAAGDSFQTPEVAMVYSTTGLNGMSQTYHDLLRDRVARSRYKHDLRPILINNWEATYFDFDADKIQSILDAAAPLGIEMFVLDDGWFGHRNDDNSSLGDWFVNRNKLPGGLADISKRTHDKGMRFGLWFEPENISADSDLYRAHPDWVLGVPDRGRTLSRNEYVLDFSQPDVVDNIFEQMTAVLDKVPIDYIKWDMNRNLTEVYSPHSDSTHEGETSHRFILGVYDLMERLTKRYPQILFEGCSGGGGRFDAGLMYYMPQSWPSDNNDPIERLKIQYGTSLVYPISAITAHVGTSPDELLGRSTSMKMRGAVAMSGTLGYELDAAQLSDADKQAVKRQVAFYKQHRELVQYGTFYRLESPFESNTVAWMFVSPDQKEALLFTFVILGAVQPEPHITKLAGLDPQQTYVETDTNKMYGGDELMQLGLYTTPVQTSDFTAQVHYFKAKDLEHHHHHH”, the protein production result is “failed”. On to “MAEDKTKPSELDQGKYDADDNVKIICLGDSAVGKSKLMERFLMDGFQPQQLSTYALTLYKHTATVDGRTILVDFWDTAGQERFQSMHASYYHKAHACIMVFDVQRKVTYRNLSTWYTELREFRPEIPCIVVANKIDADINVTQKSFNFAKKFSLPLYFVSAADGTNVVKLFNDAIRLAVSYKQNSQDFMDEIFQELENFSLEQEEEDVPDQEQSSSIETPSEEAASPHS”, for which the protein production entry is on record as “not failed”. In the case of “RLKLLYDAGLGIGTTLDVLRTADELAQVAVPRFADFVTVDLADAVLHGEEPAPTATDLRRTAVCGIRDDHPLYELGQLIDFLPSTPQARGYGSGYSELVTDLSTATGWHAQDPERTKAIIDYGIHSLIAAPIQARGVVLGMANFWRSKQHEPFVEEEMSLAEELVARAAVSIDNARRYTREHALAVTLQRSL”, the protein production result was “not failed”. As for “MVKYAKTPKSFINIKDLGFALLETDELDGTIKYSNVTQTRGLQEISVETGGEIVNAYADGSIIESGTTDGEGKISMTMHAFPQEIRELIFNEIYNEAGVYSEERGKQNNYVAVWFKRERRDGSYQQVGLTKVMFADPNLEGKTAEEDWEFSSEESEGTAMHRIADGKRKILFDSSREGANVDSFFQELLNGAYDSKTEVDTGDSTTGESAAEALEHHHHHH”, the protein production entry was “failed”.

For the sequence “MYTYSLLNLSHCRRQTRKKRKTDHTEGFLMEETKPKTVEDVETVDVYTAKGFLSTGHRYLDVRTNEEFAKSHVEEALNIPYMFKTDEGRVINPDFLSQVASVCKKDEHLIVACNAGGRGSRACVDLLNEGYDHVANMGGGYSAWVDAGFAGDKPPEDLKIACKFRPKEN”, the protein production entry is given as “failed”.

Regarding “MLVLIMWLCQQRSCRRLKRGDPMAQFENNRQRLFVPAVAPLYNSTHDLVETILRVAAGLLLVTHGFGKIVNPFGAVGMVESLGFHPGVFWSPLLAATEFFGGILVAIGLFTRPASFAAMIVLLVTVYFHGIVKAEGLGGAEKSILWAAIFLFFAVRGGNRHSVDAKLTREF”, the protein production entry was “failed”.

Turning to “MSSSSGNQNSKEHKVAVTHDLGKTNVPEHPKRVVVLELGFIDTLLDLGITPVGVADDNKAKQLINKDVLKKIDGYTSVGTRSQPSMEKIASLKPDLIIADTTRHKKVYDQLKKIAPTIALNNLNADYQDTIDASLTIAKAVGKEKEMEKKLTAHEEKLSETKQKISANSQSVLLIGNTNDTIMARDENFFTSRLLTQVGYRYAISTSGNSDSSNGGDSVNMKMTLEQLLKTDPDVIILMTGKTDDLDADGKRPIEKNVLWKKLKAVKNGHVYHVDRAVWSLRRSVDGANAILDELQKEMPAAKKLEHHHHHH”, the protein production result is reported as “failed”.

Take “MTFPPPDPAVAPPAEPASRAPHGRPATSGQSASATTVGSGAPLPASSALASTPSQAGPTGRKRPGQSTVTARTGAPNLPDPLGDNVVGERAVVPPIQQGKSRTALTNELNAEPVAGTVPAAPGGDLFIDAVLAQSYRHFFGPTSQPAVPPRQQVISITRLMEKLAYLKPADQALVREAFQFSDEAHLGQYRQSGEPYITHPVAVAELCADWKLDVQSIMAALLHDVMEDQGITKSELAEKFGPKVSELVDGLTKLDKLEFQSREQAQAESFRKMLLAMARDVRVILVKLADRTHNMRTLDFVPPEKRRRIALETMEIYAPIAHRLGLNTIYRELQELSFKVGSPFRYATLEKAVKAARGNRREVVKRILEAAQSALAGAGIVAELSGREKTLYSIYRKMHDKQLSFSQVLDVYGFRVVVETQMHCYMAMGALHGLYKPMPGKFKDYIAIPKINGYQSLHTTLVGPFGTPVEFQIRTRGMHQIAEAGVAAHWMYKHQADHANDIQQQAHQWLQSLLDIQSQTGDSQEFLEHVKIDLFPDAVYVFTPKGHIRALPRGATALDFAYAVHSDLGNQCVAVKINNELLPLRTELKSGDIVEVVTAPYSKPNPSWLAFVRTGKARAAIRHYLKTTKLDEAIQLGERLLEQSTRQLGIELKAVPQSVWDRMIQWTGNKLKEDIFADLALGRRVPAVVARRMEILLQELSGDVDSALLAAVQTFAGEDAPAVPITGDEGMSMIFSACCRPIPGDSIVGYLGKGEGLQIHVQDCKVAKRLHSKDPEHWIEVMWAKKTTRAFDVSIKIMVRNVKGIVARVAADLTSADANVAHVAMEPQQGGHQEATYMQFVIQVQNRLHLANVMRALRRNPDVIRIFRDRNDG”: the protein production entry is “failed”. With “MASKKPDKTYEEMVKEVERLKLENKTLKQKVKSSGAVSSDDSILTAAKRESIIVSSSRALGAVAMRKIEAKVRSRAAKAVTEQELTSLLQSLTLRVDVSMEELEHHHHHH” the entry was “not failed”; with “LQTLCDILRADPADSRTLTELGREIGASDRTLSRLFRSELGMTFPQWRTQLRLHHALVLLADSTPVTAVAHLCGWSSASAFIDAFRRTFGHTPGARPRD”, “failed”. Regarding “MGHHHHHHSHMVASWELRVEGRLLEDSALSKYDATKQKRKFSSFFKSLVIELDKDLYGPDNHLVEWHRTATTQETDGFQVKRPGDVNVRCTVLLMLDYQPPQFKLDPRLARLLGIHTQTRPVIIQALWQYIKTHKLQDPHEREFVI”, the protein production entry is reported as “failed”.

Take “MEMSKQLGKKFNLLTLLAYAAPTMALMLFMSIYTMVDGMFIARYVGATALSAVNIFFPIYGLIIAIALMLGTGANAIIAKKIGENNEEEAKENFTFIVICGAVLGLVITVFGLLLMEPILLMLGAGATEELFDFTYTYAKIILCTSPFMILQMLFQNFFVTAGKPNLGLTITVVGGVANIVLDYVFIVLLQMGIAGAGIATAIGIFIPAAYGFVYFIYNKESGLHFVKPKVDGKVLLNSCINGSSEMVSNLASSIVTFAFNLLMIKHLGVDGVAAITIMLYVMFILSSISMGYSAGVAPIISYNYGSKNSSQLKRVFNYSLLIIVIGSVTMYGVSMMFGAYFIQFMAPEGSAVYHIAIEGLNIFSISFLFMGFNIFSSMVFTAFSNGKISAAISFLRTLVFVLASLWILPAILGVTGIWLAIPLAEILSVIVCIFFLTHYRNDYHYA”: the protein production entry is given as “failed”.
